Measured values as given in paper PMC5395669.

Tests used:
[1] = target: MBP-RctB F311P (Vibrio cholerae); assay: AUC
[2] = target: MBP-RctB F316P (Vibrio cholerae); assay: AUC
[3] = target: MBP-RctB K312P (Vibrio cholerae); assay: AUC
[4] = target: MBP-RctB S313P (Vibrio cholerae); assay: AUC
[5] = target: MBP-tagged RctB (wild type) (Vibrio cholerae (N16961 DNA as template)); assay: AUC
[6] = target: DnaK (added to the in vitro Co-IP reactions) (UniProt P0A6Y8); assay: Co-IP (amylose magnetic beads, Western blot with α-DnaK); details: 1 µM RctB, 1 µM DnaJ, 2 µM DnaK, 100 µM ATP, buffer A pH 7.4, 4°C
[7] = target: RctB145–470 tryptic fragment (Vibrio cholerae); assay: AUC; sedimentation velocity, 50,000 rpm, 20°C; 20 mM Tris pH 8.0, 300 mM NaCl, 1 mM TCEP, 1 mM EDTA, 5 mM MgCl2; multiple concentrations (Fig. S4A)

Row | Substance | ratio to parent [6] | also measured
1 | MBP-RctB F311P (natural protein) | – | stoichiometry N [1]: 2
2 | MBP-RctB F316P (natural protein) | – | stoichiometry N [2]: 2
3 | MBP-RctB K312P (natural protein) | – | stoichiometry N [3]: 2
4 | MBP-RctB S313P (natural protein) | – | stoichiometry N [4]: 2
5 | MBP-tagged RctB (wild type) (natural protein) | – | stoichiometry N [5]: 2
6 | MBP-tagged RctB (wild type) H157A; E158A; H159A; G160A; L161A; N162A; T163A | 0.3 | –
7 | MBP-tagged RctB (wild type) L129A; V130A; T131A; E132A; S133A; V134A; K135A | 0.9 | –
8 | MBP-tagged RctB (wild type) P164A; P165A; M167A; K168A; D169A; E170A | 0.6 | –
9 | MBP-tagged RctB (wild type) Q136A; N137A; E138A; K139A; Q140A; K141A; R142A | 0.8 | –
10 | MBP-tagged RctB (wild type) Q150A; V151A; N152A; Q153A; R154A; L155A; L156A | 0.4 | –
11 | MBP-tagged RctB (wild type) S143A; K144A; L146A; Q148A; T149A | 0.8 | –
12 | RctB145–470 tryptic fragment (domain or fragment) | – | stoichiometry N [7]: 2
